# From patent US20240247072A1 (KEYMED BIOSCIENCES, published 2024)
# T1: cynomolgus monkey CD70, full length, on CHO cells (CHO-monkey CD70-D01) (cynomolgus monkey, UniProt A0A2K5WTU9 1-190)
# T1 construct: whole, on cells; Stably transfected CHO cells; also called CHO-cynomolgus monkey CD70
# T1 sequence: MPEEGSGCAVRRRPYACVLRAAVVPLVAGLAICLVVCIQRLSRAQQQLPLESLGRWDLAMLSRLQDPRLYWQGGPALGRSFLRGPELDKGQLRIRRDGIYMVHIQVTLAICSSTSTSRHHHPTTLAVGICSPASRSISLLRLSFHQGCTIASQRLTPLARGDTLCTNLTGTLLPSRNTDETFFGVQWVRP
# T2: recombinant cynomolgus monkey CD70 protein (cynomolgus monkey, UniProt A0A2K5WTU9 39-190)
# T2 construct: it stands only in column heads ('Monkey', 'Cynomolgus Monkey CD70/CD27') and in result sentences; also called Monkey (ELISA)
# T2 sequence: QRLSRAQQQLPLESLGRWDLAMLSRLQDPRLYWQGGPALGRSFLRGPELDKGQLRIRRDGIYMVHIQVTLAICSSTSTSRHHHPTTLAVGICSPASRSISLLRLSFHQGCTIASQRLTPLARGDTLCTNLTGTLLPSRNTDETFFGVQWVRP
# T3: recombinant trimeric protein of human CD70 extracellular region (human CD70 mIgG Fc (knob) / mouse IgG Fc … (human, UniProt P01863 98-330 = IgG part))
# T3 construct: The ELISA and Octet texts say only 'recombinant CD70 protein' / 'CM352 antigen'; also called recombinant human CD70 protein; recombinant CD70 protein
# T3 chain 1: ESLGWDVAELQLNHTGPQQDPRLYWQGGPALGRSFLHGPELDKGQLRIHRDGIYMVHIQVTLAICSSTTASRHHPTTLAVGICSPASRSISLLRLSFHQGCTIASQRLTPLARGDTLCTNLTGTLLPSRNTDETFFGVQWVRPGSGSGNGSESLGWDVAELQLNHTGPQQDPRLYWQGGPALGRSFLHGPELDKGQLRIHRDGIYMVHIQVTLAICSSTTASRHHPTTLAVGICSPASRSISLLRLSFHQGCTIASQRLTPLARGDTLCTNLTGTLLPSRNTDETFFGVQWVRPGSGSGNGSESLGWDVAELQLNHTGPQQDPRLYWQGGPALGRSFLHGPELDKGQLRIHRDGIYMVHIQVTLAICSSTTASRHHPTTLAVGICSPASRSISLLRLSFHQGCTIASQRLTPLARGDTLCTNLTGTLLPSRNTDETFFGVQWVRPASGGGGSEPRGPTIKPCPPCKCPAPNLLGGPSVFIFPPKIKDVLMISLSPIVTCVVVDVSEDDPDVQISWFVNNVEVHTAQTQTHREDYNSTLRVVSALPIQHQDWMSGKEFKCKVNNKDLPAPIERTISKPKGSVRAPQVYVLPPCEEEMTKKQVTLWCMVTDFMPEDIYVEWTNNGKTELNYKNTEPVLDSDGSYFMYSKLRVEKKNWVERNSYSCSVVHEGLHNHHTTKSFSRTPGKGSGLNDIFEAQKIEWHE
# T3 chain 2: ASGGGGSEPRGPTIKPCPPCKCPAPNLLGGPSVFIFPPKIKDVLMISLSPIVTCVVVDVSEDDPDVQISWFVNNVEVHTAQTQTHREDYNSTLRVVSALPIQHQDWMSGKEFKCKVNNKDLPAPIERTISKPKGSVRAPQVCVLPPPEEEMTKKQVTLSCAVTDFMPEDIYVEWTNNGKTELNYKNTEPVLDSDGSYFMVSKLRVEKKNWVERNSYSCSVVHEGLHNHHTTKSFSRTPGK
# T4: human CD70, full length, on CHO cells (CHO-human CD70-B07) (human, UniProt P32970 1-193)
# T4 construct: whole, on cells; Stably transfected CHO cells; also called CHO-CD70
# T4 sequence (looked up): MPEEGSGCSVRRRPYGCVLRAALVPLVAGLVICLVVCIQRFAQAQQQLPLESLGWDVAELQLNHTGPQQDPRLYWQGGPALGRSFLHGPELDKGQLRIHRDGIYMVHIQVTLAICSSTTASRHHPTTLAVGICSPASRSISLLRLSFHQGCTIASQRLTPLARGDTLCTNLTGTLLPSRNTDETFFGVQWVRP
# B1: 39H5 chimeric antibody (antibody, V domains shown)
# VH: EIQLVQSGPELKKPGETVKISCKASGYTFTNYGMNWVKQAPGQGLKWMGWINTYTGEPTYADDFTGRFAFSLETSASTAYLQINNLKNEDMAAYFCAREEDYRYVFNYWGQGTTLTVSS
# VL: DIQMIQSTSSLSASLGNRVTISCRASQDISNYLNWYQQKPDGTVKLLIYDTSRLHAGVPSRFSGSGSGTDYSLTISNLEQEDIATYFCQQGVTLPLTFGAGTKLEIK
# Columns and labels:
# [1] = molecular target: T1, cynomolgus monkey CD70, full length, on …; test: flow cytometry, chimeric IgG on CHO-cynomolgus monkey CD70 cells
# Experimental: (§1) Different cells in logarithmic growth phase were taken, blocked with 3% BSA for 30 minutes, and plated to a 96-well U-plate at 5×10⁴ cells/100 μL. The centrifuge was performed at 1100 rpm for 3 minutes. The supernatant was discarded and the cells were gently tapped to be loosening. 50 μL of gradient diluted antibody was added (antibody concentration: from 30 μg/mL, 3-fold dilution for 5 gradients) per well, and incubated at 4° C. for 1 hour. After incubation, 180 μL of 0.5% BSA was added to each well for washing 3 times. 30 μL/well of secondary antibody AlexaFluro647 anti-human IgG (Jackson Immuno Research, Cat. No: 109-606-170) was added and incubated at 4° C. for 45 minutes. At the end of the incubation, each well was washed 3 times with 180 μL of 0.5% BSA and finally resuspended in 50 μL of PBS for iQue (Intellicyt, USA) assay.
# [2] = molecular target: T2, recombinant cynomolgus monkey CD70 …; test: competition ELISA, chimeric IgG titrated, CD27 coated, biotin-CD70, cynomolgus pair
# Experimental: (§2) The recombinant CD27 protein was coated at 1 μg/mL in a 96-well microtiter plate and incubated overnight at 4° C. The next day, the plate was washed 3 times with PBS, added with 200 μL of 2% defatted dry milk/PBS, blocked at room temperature for 2 hours, and washed once with PBS. The purified chimeric antibody was divided to 12 concentration gradients starting at 100 nM and diluted in a 1:3 gradient. […] of the antibody was added per well and incubated at room temperature for 30 minutes. […] The plate was washed 3 times with PBST and PBS and dried by spinning. A secondary antibody Streptavidin-coupled horseradish peroxidase SA-HRP (BD bioscience, cat. No: 6222697) was diluted with 0.5% BSA in a ratio of 1:8000. 100 μL of the diluent was added into each well and incubated at room temperature for 30 minutes. The plate was washed 3 times with PBST and PBS and dried by spinning. 100 μl of color development solution (TMB solution, Sigma, Cat. No: T2885) was added into each well and protected from light at 37° C. for reaction. After the substrate developed moderately, 50 μl of H₂SO₄ was added into each well to terminate the reaction. The OD450 nm was determined by using an enzyme-linked detector within 30 minutes, and the data was collected. The results were calculated by using Graph Pad Prism 5 software.
# [3] = molecular target: T3, recombinant trimeric protein of human …; test: competition ELISA, chimeric IgG titrated, CD27 coated, biotin-CD70, human pair
# Experimental: as §2
# [4] = molecular target: T4, human CD70, full length, on CHO cells …; test: flow cytometry, chimeric IgG on CHO-human CD70 cells
# Experimental: as §1
# [5] = molecular target: T1, cynomolgus monkey CD70, full length, on …; test: FACS (iQue) on CHO-cynomolgus monkey CD70 stably transfected cells, Alexa Fluor 647 anti-human IgG secondary antibody
# Experimental: (§3) The supernatant was discarded and the cells were gently tapped to be loosening. 50 μL of gradient diluted antibodies were added (antibody concentration: from 30 μg/mL, 3-fold dilution for 8 gradients) per well, and incubated at 4° C. for 1 hour. After incubation, 200 μL of 0.5% BSA was added to each well for washing 3 times. 50 μL/well of secondary antibody Alexa Fluro647 anti-human IgG (Jackson ImmunoResearch, Cat. No: 109-606-170) was added and incubated at 4° C. for 45 minutes. At the end of the incubation, each well was washed 3 times with 180 μL of 0.5% BSA and finally resuspended in 50 μL of PBS for iQue (Intellicyt) assay.
# [6] = molecular target: T4, human CD70, full length, on CHO cells …; test: FACS (iQue) on CHO-human CD70 stably transfected cells, Alexa Fluor 647 anti-human IgG secondary antibody
# Experimental: as §3
binder,measurement,setting,value
B1,EC50,[1],15.1 nM
same,IC50,[2],0.08 nM
same,IC50,[3],0.06 nM
same,EC50,[4],10.2 nM
same,EC50 (read off the curve),[5],~3 nM
same,EC50 (read off the curve),[6],~3 nM
